Laboratory results: patent US20140056882A1

Biological target: mouse G-CSF (mGCSF, R&D Systems Cat#414-CS) (mouse) (UniProt P09920)
Assay: cell-based or functional assay

Sequence of UniProt P09920 (P09920 31-208 limits assumed): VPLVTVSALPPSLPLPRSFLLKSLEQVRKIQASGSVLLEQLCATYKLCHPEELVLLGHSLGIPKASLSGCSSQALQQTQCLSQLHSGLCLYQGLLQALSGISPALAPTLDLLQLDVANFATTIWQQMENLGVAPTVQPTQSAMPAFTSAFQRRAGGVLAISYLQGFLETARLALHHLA

IC50, inhibition of mG-CSF proliferation of hG-CSFR BaF3 cells (MTS reduction) | Substance
0.022 nM | soluble hG-CSFR-Fc protein (from UniProt Q99062 25-332) (Fc fusion)
0.01 nM | R&D Systems antibody MAB414 (rat anti-mouse G-CSF monoclonal antibody, clone 67604)
